Reference: US20060003399

Assays:
[1] = tested on: Full length human N-WASP, TAP-tagged at the C-terminus (Myc-N-WASP-TAP)
[2] = tested on: Full length human WASP, TAP-tagged at the C-terminus (Myc-WASP-TAP)

Substance: GST-tev-Rac1
- actin polymerization at higher activator concentrations [1]: At higher concentrations, Nck1, Nck2 and Rac1 inhibited WASP- and N-WASP-stimulated actin polymerization
- actin polymerization at higher activator concentrations [2]: At higher concentrations, Nck1, Nck2 and Rac1 inhibited WASP- and N-WASP-stimulated actin polymerization
